Results from publication PMC3787751.

B1: NwCld (Nitrobacter winogradskyi Nb-255) (protein)
chain: MTFTVFTGGDSGAWSILSVAPVIGESLMAASHLAIAPSLSLGDTSATTPWQLRGVASHARYVERAEKIALTSVQAGLGRNEATRAALIPIRKSAAWWEMTQDERRAIFEDKSHHIAASLKYLPAIARQLYHCRDIGEPFDFLTWFEYAPEHATMFEDLVGVLRATEEWTYVEREVDIRLARAI
B2: NdCld (Nitrospira defluvii) (protein)
chain: ADREKLLTESGVYGTFATFQMDHDWWDLPGESRVISVAEVKGLVEQWSGKILVESYLLRGLSDHADLMFRVHARTLSDTQQFLSAFMGTRLGRHLTSGGLLHGVSKKPTYVAGFPESMKTELQVNGESGSRPYAIVIPIKKDAEWWALDQEARTALMQEHTQAALPYLKTVKRKLYHSTGLDDVDFITYFETERLEDFHNLVRALQQVKEFRHNRRFGHPTLLGTMSPLDEILEKFAQ

Substrate: [O-][Cl+]O
Test: purified protein
Conditions: 25 °C, pH 7.0

Protein | Km [µM] | kcat [s⁻¹]
B1 | 90 ± 12 | 190 ± 14
B2 | 58 ± 9 | 35 ± 5
